In patent US7943141B2, “Activated polyoxazolines and compositions comprising the same” (Serina Therapeutics, Inc., priority 2007, dated 2011):

Columns and labels:
catalase = target: T1, catalase (Bos taurus, UniProt P00432); assay: Catalase enzymatic activity (method of Beers and Sizer); assay type: biochemical; conditions: native enzyme
T1 sequence (P00432 2-527 limits assumed): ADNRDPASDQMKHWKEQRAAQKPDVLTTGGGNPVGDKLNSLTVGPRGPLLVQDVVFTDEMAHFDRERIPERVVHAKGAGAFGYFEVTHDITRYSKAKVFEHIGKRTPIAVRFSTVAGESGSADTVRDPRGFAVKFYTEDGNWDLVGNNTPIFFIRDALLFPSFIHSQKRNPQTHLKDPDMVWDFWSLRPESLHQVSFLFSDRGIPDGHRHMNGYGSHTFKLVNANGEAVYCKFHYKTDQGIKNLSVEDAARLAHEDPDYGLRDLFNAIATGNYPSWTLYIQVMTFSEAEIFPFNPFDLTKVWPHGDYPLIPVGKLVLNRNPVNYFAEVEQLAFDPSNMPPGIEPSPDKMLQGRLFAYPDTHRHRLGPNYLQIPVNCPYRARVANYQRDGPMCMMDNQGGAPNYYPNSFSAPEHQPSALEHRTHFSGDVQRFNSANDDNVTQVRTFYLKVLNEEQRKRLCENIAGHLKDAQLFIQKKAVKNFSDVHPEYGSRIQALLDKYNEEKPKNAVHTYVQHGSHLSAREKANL
Excerpt: (§1) To evaluate the different influence on enzyme properties as a function of polymerization with POZ derivatives of the present disclosure and corresponding PEG polymers known in the art, three different enzymes, ribonuclease A, uricase and catalase, were modified with M-PEOZ-O—CH2—CO2—NHS (6 kDa) and PEG-O—CH2—CO2—NHS (5.5 kDa). To facilitate the comparison, each enzyme was modified under similar conditions regarding polymer to enzyme ratios, buffer, pH and reaction temperature.
The conditions of enzyme modification with the POZ and PEG polymers described above were 0.2 M, pH 8.5 in borate buffer. The amount of POZ and PEG polymer used for modification was calculated on the basis of calculated total available amino groups in each enzyme. […]
To the three enzymes solutions (2.5 mg/ml) M-POZ-O—CH2—CO2—NHS or PEG-O—CH2—CO2—NHS solid were added at room temperature at a molar ratio of polymer to protein amino groups of 2/1 and 1/1 respectively. Protein concentration of the native forms of ribonuclease, uricase and catalase was evaluated spectrophotometrically using molar extinction coefficients of 9.45×10^3, 13×10^3 and 1.67×10^5 at 280 nm, respectively. […]
The degree of protein modification was evaluated colorimetrically by TNBS assay and expressed as percentage of conjugate amino groups to the total ones present on the protein. […]

ribonuclease A = target: T2, ribonuclease A (Bos taurus, UniProt P61823); assay: Ribonuclease enzymatic activity (method of Crook et al.); assay type: biochemical
T2 sequence (P61823 27-150): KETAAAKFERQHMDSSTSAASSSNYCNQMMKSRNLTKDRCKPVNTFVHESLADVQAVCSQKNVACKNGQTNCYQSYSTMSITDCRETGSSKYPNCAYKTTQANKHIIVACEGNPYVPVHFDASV
Excerpt: as §1
The conditions of enzyme modification with the POZ and PEG polymers described above were 0.2 M, pH 8.5 in borate buffer. The amount of POZ and PEG polymer used for modification was calculated on the basis of calculated total available amino groups in each enzyme. For example, ribonuclease A has a molecular weight of 13.7 kDa and 11 available amino groups; uricase has a molecular weight of 130 kDa and 100 available amino groups; and catalase has a molecular weight of 240 kDa and 112 available amino groups.
To the three enzymes solutions (2.5 mg/ml) M-POZ-O—CH2—CO2—NHS or PEG-O—CH2—CO2—NHS solid were added at room temperature at a molar ratio of polymer to protein amino groups of 2/1 and 1/1 respectively. Protein concentration of the native forms of ribonuclease, uricase and catalase was evaluated spectrophotometrically using molar extinction coefficients of 9.45×10^3, 13×10^3 and 1.67×10^5 at 280 nm, respectively. After 30 minutes, polymer-enzyme conjugates were purified from unreacted polymer and n-hydroxysuccinimide by gel filtration chromatography Sephadex G-75 column, with 0.1M phosphate buffer, pH 7.4 as eluent.
The degree of protein modification was evaluated colorimetrically by TNBS assay and expressed as percentage of conjugate amino groups to the total ones present on the protein. Enzymatic activity of native and modified enzymes was evaluated as follows: ribonuclease activity was assayed by the method of Crook et al. (Biochem J. 1960 February; 74:234-8); uricase activity was determined by the method of Mahler (Anal Biochem. 1970 November; 38(1):65-84); and catalase was assayed according to a method reported by Beers and Sizer (J. Biol. Chem. 1952 March; 195(1):133-40).

Molecule | % activity (catalase) | % activity (ribonuclease A; native enzyme) | % activity (ribonuclease A; NH2:polymer molar ratio 1:1) | % activity (ribonuclease A; NH2:polymer molar ratio 2:1)
Catalase | 100% | – | – | –
RNAse: native ribonuclease A (protein, UniProt P61823 27-150, looked up) Ribonuclease pancreatic: KETAAAKFERQHMDSSTSAASSSNYCNQMMKSRNLTKDRCKPVNTFVHESLADVQAVCSQKNVACKNGQTNCYQSYSTMSITDCRETGSSKYPNCAYKTTQANKHIIVACEGNPYVPVHFDASV | – | 100% | – | –
POZ/RNAse: ribonuclease A modified with M-PEOZ-O—CH2—CO2—NHS (6 kDa) (conjugate, UniProt P61823 27-150, looked up, M-PEOZ 6 kDa conjugate) Ribonuclease pancreatic: KETAAAKFERQHMDSSTSAASSSNYCNQMMKSRNLTKDRCKPVNTFVHESLADVQAVCSQKNVACKNGQTNCYQSYSTMSITDCRETGSSKYPNCAYKTTQANKHIIVACEGNPYVPVHFDASV | – | – | 50% | 30%
PEG/RNAse: ribonuclease A modified with PEG-O—CH2—CO2—NHS (5.5 kDa) (conjugate, UniProt P61823 27-150, looked up, PEG 5.5 kDa conjugate) Ribonuclease pancreatic: KETAAAKFERQHMDSSTSAASSSNYCNQMMKSRNLTKDRCKPVNTFVHESLADVQAVCSQKNVACKNGQTNCYQSYSTMSITDCRETGSSKYPNCAYKTTQANKHIIVACEGNPYVPVHFDASV | – | – | 15% | 10%
